Experimental data taken from US20160115222A1 (published 2016).

Legend:
[1] = biological target: T1, Sbi-E (amino acids 28-266) (Staphylococcus aureus, UniProt Q2FVK5 28-266); assay: double immunodiffusion in agarose gel
T1 construct: range 28-266

[2] = biological target: T2, Recombinant SpA (Biovision), recombinant 4-domain SpA (Staphylococcus aureus, UniProt P38507 37-269); assay: double immunodiffusion in agarose gel
T2 construct: domain: SpA IgBP domains 1-4; also called SpA 1-4; SpA1-4

[3] = biological target: T3, rProtein A (HiTrap rProtein A FF column) (Staphylococcus aureus, UniProt P38507 37-327); assay: affinity chromatography
T3 construct: also called SpA

[4] = biological target: T4, SpA on S. aureus Newman strain cells (Staphylococcus aureus (Newman strain), UniProt A0A0H3K686 37-477); assay: whole cell ELISA
T4 construct: also called wild type S. aureus Newman

B1: Anti-RSV variant antibody MAB5 (antibody, human IgG1, kappa, V domains shown)
VH: QVTLRESGPALVKPTQTLTLTCTFSGFSLSTAGMSVGWIRQPPGKALEWLADIWWDDKKHYNPSLKDRLTISKDTSKNQVVLKVTNMDPADTATYYCARDMIFNFYFDVWGQGTTVTVSS
VL: DIQMTQSPSTLSASVGDRVTITCSASSRVGYMHWYQQKPGKAPKLLIYDTSKLASGVPSRFSGSGSGTEFTLTISSLQPDDFATYYCFQGSGYPFTFGGGTKLEIKR
notes: also called anti-RSV heavy chain constant region variant; control anti-RSV variant antibody
- binding result [1]: no binding (tested: 1 mg/ml (from paragraph 493, not on the sheet))
- binding result [2]: no binding (tested: 1 mg/ml (from paragraph 493, not on the sheet))
- binding result [3]: no binding
- binding result [4]: no binding
